Measurements reported in IntAct's records for PubMed 23238393.

B1: Ubiquitin-like protein ATG12B (Arabidopsis thaliana (Mouse-ear cress)), Q9LVK3 (parent)
chain: MATESPNSVQKIVVHLRATGGAPILKQSKFKVSGSDKFANVIDFLRRQLHSDSLFVYVNSAFSPNPDESVIDLYNNFGFDGKLVVNYACSMAWG
partner: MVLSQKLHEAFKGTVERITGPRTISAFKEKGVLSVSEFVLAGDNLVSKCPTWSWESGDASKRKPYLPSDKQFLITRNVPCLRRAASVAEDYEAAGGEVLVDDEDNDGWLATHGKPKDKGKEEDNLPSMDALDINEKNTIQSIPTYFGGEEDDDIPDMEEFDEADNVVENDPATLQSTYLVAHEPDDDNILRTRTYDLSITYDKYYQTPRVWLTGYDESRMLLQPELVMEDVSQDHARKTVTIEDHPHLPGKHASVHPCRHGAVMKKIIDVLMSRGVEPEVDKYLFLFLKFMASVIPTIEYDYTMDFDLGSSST

Variants of: B1
Settings: with atg3_arath ATG3, Q0WWQ1

Variant | effect of a mutation on the interaction
Y57A | decreasing interaction

Variants of: B1
Settings: with atg3_arath ATG3, Q0WWQ1
Remark: another data set of the same source

Variant | effect of a mutation on the interaction
F62A | decreasing interaction
